From patent US20240148728

T1: recombinant SNAP-tagged NLRP1^DR purified from bacteria
T1 chain: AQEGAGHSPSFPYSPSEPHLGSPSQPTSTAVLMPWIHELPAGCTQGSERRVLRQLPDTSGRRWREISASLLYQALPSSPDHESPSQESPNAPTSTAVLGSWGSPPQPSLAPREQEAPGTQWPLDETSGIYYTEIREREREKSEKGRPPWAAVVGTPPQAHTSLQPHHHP

B1: ZAKα kinase (wild-type) (protein)
chain: MSSLGASFVQIKFDDLQFFENCGGGSFGSVYRAKWISQDKEVAVKKLLKIEKEAEILSVLSHRNIIQFYGVILEPPNYGIVTEYASLGSLYDYINSNRSEEMDMDHIMTWATDVAKGMHYLHMEAPVKVIHRDLKSRNVVIAADGVLKICDFGASRFHNHTTHMSLVGTFPWMAPEVIQSLPVSETCDTYSYGVVLWEMLTREVPFKGLEGLQVAWLVVEKNERLTIPSSCPRSFAELLHQCWEADAKKRPSFKQIISILESMSNDTSLPDKCNSFLHNKAEWRCEIEATLERLKKLERDLSFKEQELKERERRLKMWEQKLTEQSNTPLLPSFEIGAWTEDDVYCWVQQLVRKGDSSAEMSVYASLFKENNITGKRLLLLEEEDLKDMGIVSKGHIIHFKSAIEKLTHDYINLFHFPPLIKDSGGEPEENEEKIVNLELVFGFHLKPGTGPQDCKWKMYMEMDGDEIAITYIKDVTFNTNLPDAEILKMTKPPFVMEKWIVGIAKSQTVECTVTYESDVRTPKSTKHVHSIQWSRTKPQDEVKAVQLAIQTLFTNSDGNPGSRSDSSADCQWLDTLRMRQIASNTSLQRSQSNPILGSPFFSHFDGQDSYAAAVRRPQVPIKYQQITPVNQSRSSSPTQYGLTKNFSSLHLNSRDSGFSSGNTDTSSERGRYSDRSRNKYGRGSISLNSSPRGRYSGKSQHSTPSRGRYPGKFYRVSQSALNPHQSPDFKRSPRDLHQPNTIPGMPLHPETDSRASEEDSKVSEGGWTKVEYRKKPHRPSPAKTNKERARGDHRGWRNF
B2: p38β (protein)
chain: MSGPRAGFYRQELNKTVWEVPQRLQGLRPVGSGAYGSVCSAYDARLRQKVAVKKLSRPFQSLIHARRTYRELRLLKHLKHENVIGLLDVFTPATSIEDFSEVYLVTTLMGADLNNIVKCQALSDEHVQFLVYQLLRGLKYIHSAGIIHRDLKPSNVAVNEDCELRILDFGLARQADEEMTGYVATRWYRAPEIMLNWMHYNQTVDIWSVGCIMAELLQGKALFPGSDYIDQLKRIMEVVGTPSPEVLAKISSEHARTYIQSLPPMPQKDLSSIFRGANPLAIDLLGRMLVLDSDQRVSAAEALAHAYFSQYHDPEDEPEAEPYDESVEAKERTLEEWKELTYQEVLSFKPPEPPKPPGSLEIEQ

Target: T1, recombinant SNAP-tagged NLRP1^DR …

Row | Protein | phosphorylation in a recombinant kinase reaction (PhosTag SDS-PAGE, SNAP ligand fluorescence) | phosphorylation in a recombinant kinase assay
1 | B1 | recombinant ZAKα is sufficient to phosphorylate SNAP-tagged NLRP1^DR purified from bacteria | 
2 | B2 |  | both p38α/β can phosphorylate NLRP1^DR in a recombinant kinase assay
